Ends that are not written are not given here. * marks the point of attachment. Cholyl = C[C@H](CCC(=O)*)[C@H]1CC[C@H]2[C@@H]3[C@H](O)C[C@@H]4C[C@H](O)CC[C@]4(C)[C@H]3C[C@H](O)[C@]12C; iminobiotinyl = N=C1N[C@H]2[C@H](CS[C@H]2CCCCC(=O)*)N1; FICO = 5-(and 6-)-carboxyfluoresceinyl; NANA = N-acetyl neuraminyl
B1: cholyl-Aβ17-21 (peptide)
peptide: Cholyl-LVFFA-OH
SMILES: CC(C)C[C@H](NC(=O)CC[C@@H](C)[C@H]1CC[C@H]2[C@@H]3[C@H](O)C[C@@H]4C[C@H](O)CC[C@]4(C)[C@H]3C[C@H](O)[C@]12C)C(=O)N[C@H](C(=O)N[C@@H](Cc1ccccc1)C(=O)N[C@@H](Cc1ccccc1)C(=O)N[C@@H](C)C(=O)O)C(C)C
B2: cholyl-Aβ15-19 (peptide)
peptide: Cholyl-QKLVF-OH
SMILES: CC(C)C[C@H](NC(=O)[C@H](CCCCN)NC(=O)[C@H](CCC(N)=O)NC(=O)CC[C@@H](C)[C@H]1CC[C@H]2[C@@H]3[C@H](O)C[C@@H]4C[C@H](O)CC[C@]4(C)[C@H]3C[C@H](O)[C@]12C)C(=O)N[C@H](C(=O)N[C@@H](Cc1ccccc1)C(=O)O)C(C)C
B3: cholyl-Aβ16-19-amide (PPI-321 as printed in Table IV) (peptide)
peptide: Cholyl-KLVF-NH2
SMILES: CC(C)C[C@H](NC(=O)[C@H](CCCCN)NC(=O)CC[C@@H](C)[C@H]1CC[C@H]2[C@@H]3[C@H](O)C[C@@H]4C[C@H](O)CC[C@]4(C)[C@H]3C[C@H](O)[C@]12C)C(=O)N[C@H](C(=O)N[C@@H](Cc1ccccc1)C(N)=O)C(C)C

Biological target: natural β-amyloid peptide β-AP1-40 (human)
Experiment: cell-based or functional assay

Chain of natural β-amyloid peptide β-AP1-40 (human) (peptide, as listed by the source): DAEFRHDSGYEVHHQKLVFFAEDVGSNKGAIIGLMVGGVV

Binder	% Inhibition of Plateau; nucleation assay; 100 mole % [%]	Fold Increase in Lag Time; nucleation assay; 100 mole % [fold]
Cholyl-KLVFFAEDVGSNKGA [cholyl-Aβ16-30]	100	> 4.5
{NANA}-KLVFFAEDVGSNKGA [NANA-Aβ16-30]	~0	~1
{NANA}-HDSGYEVHHQKLVFF [NANA-Aβ6-20]	64	1.3
{NANA}-SNKGAIIGLMVGGVV [NANA-Aβ26-40]	~0	1.3
iminobiotinyl-DAEFRHDSGYEVHHQ [iminobiotinyl-Aβ1-15]	~0	1.2
{NANA}-AEDVGSNKGAIIGLM [NANA-Aβ21-35]	53	~1
iminobiotinyl-SNKGAIIGLMVGGVV [iminobiotinyl-Aβ26-40]	~0	2.3
iminobiotinyl-EVHHQKLVFFAEDVG [iminobiotinyl-Aβ11-25]	40	1.2
{FICO}-DAEFRHDSGYEVHHQ [FICO-Aβ1-15]	30	~1
Cholyl-SNKGAIIGLMVGGVV [cholyl-Aβ26-40]	87	> 4.5
iminobiotinyl-HDSGYEVHHQKLVFF [iminobiotinyl-Aβ6-20]	44	1.6
{NANA}-DAEFRHDSGYEVHHQ [NANA-Aβ1-15]	~0	~1
{FICO}-KLVFFAEDVGSNKGA [FICO-Aβ16-30]	59	1.6
iminobiotinyl-KLVFFAEDVGSNKGA [iminobiotinyl-Aβ16-30]	55	1.2
iminobiotinyl-AEDVGSNKGAIIGLM [iminobiotinyl-Aβ21-35]	66	~1
{FICO}-HDSGYEVHHQKLVFF [FICO-Aβ6-20]	~0	1.9
Cholyl-AEDVGSNKGAIIGLM [cholyl-Aβ21-35]	51	1.6
{FICO}-AEDVGSNKGAIIGLM [FICO-Aβ21-35]	25	1.2

Biological target: natural β-amyloid peptide β-AP1-40 (human)
Experiment: cell-based or functional assay
Remark: another data set of the same source

Binder	% Inhibition of Plateau; nucleation assay; 100 mole % [%]	Fold Increase in Lag Time; nucleation assay; 100 mole % [fold]	% Inhibition of Plateau; nucleation assay; 10 mole % [%]	Fold Increase in Lag Time; nucleation assay; 10 mole % [fold]
B1	100	> 5	–	–
Cholyl-KLTFF [cholyl-Aβ16-20 (Val18->Thr)]	~0	~1	–	–
iminobiotinyl-KLVFF-OH [iminobiotinyl-Aβ16-20]	86	1.3	–	–
B2	~0	3.1	~0	1.6
B3	~0	1.2	–	–

Biological target: natural β-amyloid peptide β-AP1-40 (human)
Experiment: cell-based or functional assay
Remark: another data set of the same source

Binder	% Iext'n; seeded extension assay; 25 mole % [%]	% Inucl'n; nucleation assay; 100 mole % [%]	ΔLag; nucleation assay; 100 mole % [ratio]
B1	91	100	> 5
Cholyl-KLTFF [cholyl-Aβ16-20 (Val18->Thr)]	44	-16	1.1
iminobiotinyl-KLVFF-OH [iminobiotinyl-Aβ16-20]	0	86	1.3
B2	–	-23	3.1

From patent US7658917 (PRAECIS PHARMACEUTICALS, dated 2010)
